Test results published in patent US9561289B2, “Peptides for inhibiting tumor growth” (OSPEDALE SAN RAFFAELE SRL, priority 2012, dated 2017).
Read-outs that look alike come from different tables or passages of the source. *1 amine or outer side, *2 acyl side, *3 side chain or, on linkers, in order; H or OH if unused. Where a SMILES comes first, the peptide text is derived from it. Bridges are numbered along the chain shown (N, C = ends). Primed or numbered codes have the meaning given here. Side-chain parts run from the residue outwards. [ ]: non-standard residue; d: D form. The star is where a group is joined. X1 = NC(=O)C1CCC(CN2C(=O)CC(*)C2=O)CC1; X2 = O=C(O)C1CCC(CN2C(=O)CC(*)C2=O)CC1; βAsp = O=C(O)[C@H](CC(=O)[*:2])N[*:1]; dPhg = N[C@@H](C(=O)O)c1ccccc1; SMCC = sulfo-SMCC linker; OH′ = O*

Legend:
αvβ6 = molecular target: T1, αvβ6 (Homo sapiens, UniProt P06756+P18564); assay: Competitive integrin binding assay (isoDGR/STV-HRP) on αvβ6-coated plates; conditions: for ratio of integrin Ki/αvβ3 Ki (αvβ6): number in parenthesis; for Ki: mean ± SE
T1 construct: purchased R&D System (Minneapolis, Minn.)
Method: (§1) A conjugate consisting of biotinylated acetyl-Ciso[…] (SEQ ID NO:36) peptide complexed with streptavidin-peroxidase conjugate (isoDGR/STV-HRP) was first prepared as described previously. […] Each mixture was then added to microtiter plates coated with integrins (αvβ3, αvβ5, αvβ6, […], or α5β1) and incubated for 2 h at room temperature. After washing, each well was incubated with 70 μl of chromogenic solution (o-phenylenediamine dihydrochloride) for 20 min, at room temperature. The chromogenic reaction was stopped by adding an equal volume of 1 N sulfuric acid. The absorbance at 490 nm was then measured using a microtiter plate reader.
(§2) The binding affinity and selectivity of each peptide for different integrins were then analyzed by competitive binding assay, using αvβ3-, αvβ5-, αvβ6-, αvβ8- and α5β1-coated plates and isoDGR/STV-HRP, an ac-isoDGR-2C/peroxidase complex, as competitor.

αvβ5 = molecular target: T2, αvβ5 (Homo sapiens, UniProt P06756+P18084); assay: Competitive integrin binding assay (isoDGR/STV-HRP) on αvβ5-coated plates; conditions: for ratio of integrin Ki/αvβ3 Ki (αvβ5): number in parenthesis
T2 construct: purchased Immunological Sciences (Rome, Italy)
Method: as §1, §2

α5β1 = molecular target: T3, α5β1 (Homo sapiens, UniProt P05556+P08648); assay: Competitive integrin binding assay (isoDGR/STV-HRP) on α5β1-coated plates; conditions: for ratio of integrin Ki/αvβ3 Ki (α5β1): number in parenthesis
T3 construct: purchased Immunological Sciences (Rome, Italy)
Method: as §1, §2

αvβ8 = molecular target: T4, αvβ8 (Homo sapiens, UniProt P06756+P26012); assay: Competitive integrin binding assay (isoDGR/STV-HRP) on αvβ8-coated plates; conditions: for ratio of integrin Ki/αvβ3 Ki (αvβ8): number in parenthesis
T4 construct: purchased R&D System (Minneapolis, Minn.)
Method: as §1, §2

αvβ3 = molecular target: T5, αvβ3 (Homo sapiens, UniProt P05106+P06756); assay: Competitive integrin binding assay (isoDGR/STV-HRP) on αvβ3-coated plates; conditions: for ratio of integrin Ki/αvβ3 Ki (αvβ3): number in parenthesis
T5 construct: purchased Immunological Sciences (Rome, Italy)
Method: as §1, §2

[1] = Asn deamidation of NGR peptides by mass spectrometry; assay type: physicochemical; conditions: 37° C., 0.1 M ammonium bicarbonate buffer, pH 8.5
Method: Orbitrap-ESI mass spectrometry analysis of NGR#3 and NGR-2C at various time points after incubation at 37° C. in 0.1 M ammonium bicarbonate buffer (Ambic), pH 8.5. During the analyses the NGR#3 forms dimers. +0 (no deamidation), +0.5 (one deamidation/molecule) and +1 (two deamidations/molecule) correspond to the difference between found and expected molecular masses in daltons.
It is well known that NGR may undergo Asn deamidation generating isoDGR, an integrin binding motif. To assess whether the molecular scaffold of NGR might affect the deamidation rate we analyzed the molecular masses of NGR#3 and […] (SEQ ID NO:37) (NGR-2C) before and after incubation at 37° C. in 0.1 M ammonium bicarbonate buffer, pH 8.5 (AmBic) for various times. […] The extent of binding of heat-treated NGR-HSA was very similar to that obtained with isoDGR#3-HSA, i.e. a conjugate prepared using a similar peptide having isoAsp in place of Asn (FIG. 17B, right).

[2] = molecular target: T6, Recombinant human integrin αvβ8 (human, UniProt P06756 31-992; P26012 43-684); assay: competitive binding assay, integrin-coated plate, probe isoDGR/STV-HRP
T6 construct: Bought from R&D System; also called αvβ38 [sic]

Human integrin αvβ5 [3] = molecular target: T7, Human integrin αvβ5 (human, UniProt P06756 31-1048; P18084 24-799, limits assumed); assay: as above
T7 construct: Bought from Immunological Sciences; coated on microtiter plates

Human integrin α5β1 [4] = molecular target: T8, Human integrin α5β1 (human, UniProt P08648 42-1049; P05556 21-798, limits assumed); assay: as above
T8 construct: Bought from Immunological Sciences; coated on microtiter plates

[5] = molecular target: T9, Recombinant human integrin αvβ6 (human, UniProt P06756 31-992; P18564 22-707); assay: as above
T9 construct: Bought from R&D System

Human integrin αvβ3 [6] = molecular target: T10, Human integrin αvβ3 (human, UniProt P06756 31-1048; P05106 27-788, limits assumed); assay: as above
T10 construct: Bought from Immunological Sciences; coated on microtiter plates or spotted on nitrocellulose; also called avb3; purified αvβ3-integrin

[7] = molecular target: T6, Recombinant human integrin αvβ8; assay: as above; remark: listed apart in the source
Human integrin αvβ5 [8] = molecular target: T7, Human integrin αvβ5; assay: as above; remark: listed apart in the source
Human integrin α5β1 [9] = molecular target: T8, Human integrin α5β1; assay: as above; remark: listed apart in the source
[10] = molecular target: T9, Recombinant human integrin αvβ6; assay: as above; remark: listed apart in the source
Human integrin αvβ3 [11] = molecular target: T10, Human integrin αvβ3; assay: as above; remark: listed apart in the source

N=C(N)NCCC[C@@H]1NC(=O)CNC(=O)C[C@@H](C(=O)O)NC(=O)CNC(=O)[C@H](CSC2CC(=O)N(CC3CCC(C(N)=O)CC3)C2=O)NC(=O)CNC1=O (stereo partly shown) [isoDGR#1-P1] (GRGC(X1)GD-OH; lactam N-6)
ratio of integrin Ki/αvβ3 Ki (αvβ6) (αvβ6): (17)
ratio of integrin Ki/αvβ3 Ki (αvβ5) (αvβ5): (1)^
ratio of integrin Ki/αvβ3 Ki (α5β1) (α5β1): (8.6)
ratio of integrin Ki/αvβ3 Ki (αvβ8) (αvβ8): (160)
ratio of integrin Ki/αvβ3 Ki (αvβ3) (αvβ3): (1)

CNGRCGVRY [NGR-2C, reference compound]
deamidation rate [1]: faster than that of NGR#3

N=C(N)NCCC[C@@H]1NC(=O)CNC(=O)C[C@@H](C(=O)O)NC(=O)[C@H](CS)NC(=O)[C@@H](c2ccccc2)NC(=O)CNC1=O [isoDGR#7, c(CisoDGRGphg)] (GRG[dPhg]CD-OH; lactam N-6)
ratio of integrin Ki/αvβ3 Ki (αvβ6) (αvβ6): (0.03)
ratio of integrin Ki/αvβ3 Ki (αvβ5) (αvβ5): (0.6)
ratio of integrin Ki/αvβ3 Ki (α5β1) (α5β1): (0.04)
ratio of integrin Ki/αvβ3 Ki (αvβ8) (αvβ8): (0.4)
ratio of integrin Ki/αvβ3 Ki (αvβ3) (αvβ3): (1)

c(CNGRGG) (cyclic; Cyclic peptide) [NGR#3]
deamidation rate [1]: reduce the deamidation rate

N=C(N)NCCC[C@@H]1NC(=O)CNC(=O)C[C@@H](C(=O)O)NC(=O)CNC(=O)[C@H](CS)NC(=O)[C@@H](c2ccccc2)NC1=O [isoDGR#5, c(CGisoDGRphg)] (GR[dPhg]CGD-OH; lactam N-6)
ratio of integrin Ki/αvβ3 Ki (αvβ6) (αvβ6): (3.7)
ratio of integrin Ki/αvβ3 Ki (αvβ5) (αvβ5): (1.30)
ratio of integrin Ki/αvβ3 Ki (α5β1) (α5β1): (3.26)
ratio of integrin Ki/αvβ3 Ki (αvβ8) (αvβ8): (42)
ratio of integrin Ki/αvβ3 Ki (αvβ3) (αvβ3): (1)

N=C(N)NCCC[C@@H]1NC(=O)CNC(=O)C[C@@H](C(=O)O)NC(=O)CNC(=O)[C@H](CSC2CC(=O)N(CC3CCC(C(=O)O)CC3)C2=O)NC(=O)CNC1=O (stereo partly shown) [isoDGR#1-P2] (GRGC(X2)GD-OH; lactam N-6)
ratio of integrin Ki/αvβ3 Ki (αvβ6) (αvβ6): (80)
ratio of integrin Ki/αvβ3 Ki (αvβ5) (αvβ5): (1.6)
ratio of integrin Ki/αvβ3 Ki (α5β1) (α5β1): (9.6)
ratio of integrin Ki/αvβ3 Ki (αvβ8) (αvβ8): (318)
ratio of integrin Ki/αvβ3 Ki (αvβ3) (αvβ3): (1)

N=C(N)NCCC[C@@H]1NC(=O)CNC(=O)C[C@@H](C(=O)O)NC(=O)[C@H](CS)NC(=O)CNC1=O [isoDGR#2, c(CisoDGRG)] (GRGCD-OH; lactam N-5)
ratio of integrin Ki/αvβ3 Ki (αvβ6) (αvβ6): (1.9)
ratio of integrin Ki/αvβ3 Ki (αvβ5) (αvβ5): (1)
ratio of integrin Ki/αvβ3 Ki (α5β1) (α5β1): (0.5)
ratio of integrin Ki/αvβ3 Ki (αvβ8) (αvβ8): (2.2)
ratio of integrin Ki/αvβ3 Ki (αvβ3) (αvβ3): (1)

*AV(0:1): sulfo-SMCC-activated avidin lacking the peptide [reference compound]
Ki (αvβ6): > 2500 nM
Ki (αvβ5; mean ± SE): > 2500 nM
Ki (α5β1; mean ± SE): > 2500 nM
Ki (αvβ3; mean ± SE): > 2500 nM

N=C(N)NCCC[C@@H]1NC(=O)CNC(=O)C[C@@H](C(=O)O)NC(=O)[C@H](CSC2CC(=O)N(CC3CCC(C(=O)O)CC3)C2=O)NC(=O)CNC(=O)CNC1=O (stereo partly drawn) [isoDGR#3-P2] (GRGGC(X2)D-OH; lactam N-6)
Ki (αvβ6): 468 nM
ratio of integrin Ki/αvβ3 Ki (αvβ6) (αvβ6): (26)
Ki (αvβ8; mean ± SE): 430 nM
ratio of integrin Ki/αvβ3 Ki (αvβ8) (αvβ8): (24)
ratio of integrin Ki/αvβ3 Ki (αvβ3) (αvβ3): (1)

B1: isoDGR#1-linker conjugate, peak P2 (peptide)
peptide: cyclo(C([SMCC-OH′])G[βAsp]GRG)
notes: HPLC peak P2 (carboxylic form, partial hydrolysis of sulfo-succinimide); also called isoDGR#1-P2
Ki [2]: 10500 nM
ratio of integrin Ki/αvβ3 Ki [2]: 318
Ki (Human integrin αvβ5 [3]): 52 nM
ratio of integrin Ki/αvβ3 Ki (Human integrin αvβ5 [3]): 1.6
Ki (Human integrin α5β1 [4]): 318 nM
ratio of integrin Ki/αvβ3 Ki (Human integrin α5β1 [4]): 9.6
Ki [5]: 2730 nM
ratio of integrin Ki/αvβ3 Ki [5]: 80
Ki (Human integrin αvβ3 [6]): 33 nM
ratio of integrin Ki/αvβ3 Ki (Human integrin αvβ3 [6]): 1

B2: isoDGR#3-linker conjugate, peak P2 (peptide)
peptide: cyclo(C(SMCC)[βAsp]GRGG)
modifications: not fully specified
notes: said to be similar to isoDGR#1-linker (P2 carboxylic form); also called isoDGR#3-P2
Ki (Human integrin αvβ3 [6]): 18 nM

B3: c(CisoDGRGG) (peptide)
peptide: cyclo(C[βAsp]GRGG)
SMILES: N=C(N)NCCC[C@@H]1NC(=O)CNC(=O)C[C@@H](C(=O)O)NC(=O)[C@H](CS)NC(=O)CNC(=O)CNC1=O
notes: also called isoDGR#3
Ki [7]: 54 nM
Ki (Human integrin αvβ5 [8]): 42 nM
Ki (Human integrin α5β1 [9]): 21 nM
Ki [10]: 58 nM
Ki (Human integrin αvβ3 [11]): 43 nM

B4: c(CGisoDGRG) (peptide)
peptide: cyclo(CG[βAsp]GRG)
SMILES: N=C(N)NCCC[C@@H]1NC(=O)CNC(=O)C[C@@H](C(=O)O)NC(=O)CNC(=O)[C@H](CS)NC(=O)CNC1=O
notes: also called isoDGR#1
Ki [7]: 7270 nM
ratio of integrin Ki/αvβ3 Ki [7]: 70
Ki (Human integrin αvβ5 [8]): 225 nM
ratio of integrin Ki/αvβ3 Ki (Human integrin αvβ5 [8]): 2
Ki (Human integrin α5β1 [9]): 320 nM
ratio of integrin Ki/αvβ3 Ki (Human integrin α5β1 [9]): 3
Ki [10]: 1470 nM
ratio of integrin Ki/αvβ3 Ki [10]: 14
Ki (Human integrin αvβ3 [11]): 103 nM
ratio of integrin Ki/αvβ3 Ki (Human integrin αvβ3 [11]): 1

B5: isoDGR#1-linker conjugate, peak P1 (peptide)
peptide: cyclo(C([SMCC-NH2])G[βAsp]GRG)
notes: HPLC peak P1 (amido form); also called isoDGR#1-P1
Ki [2]: 5600 nM
ratio of integrin Ki/αvβ3 Ki [2]: 160
Ki (Human integrin αvβ5 [3]): 35 nM
ratio of integrin Ki/αvβ3 Ki (Human integrin αvβ5 [3]): 1
Ki (Human integrin α5β1 [4]): 302 nM
ratio of integrin Ki/αvβ3 Ki (Human integrin α5β1 [4]): 8.6
Ki [5]: 583 nM
ratio of integrin Ki/αvβ3 Ki [5]: 17
Ki (Human integrin αvβ3 [6]): 35 nM
ratio of integrin Ki/αvβ3 Ki (Human integrin αvβ3 [6]): 1

cyclo(C[βAsp]GRG) (SMILES N=C(N)NCCC[C@@H]1NC(=O)CNC(=O)C[C@@H](C(=O)O)NC(=O)[C@H](CS)NC(=O)CNC1=O, also called isoDGR#2) [c(CisoDGRG)]
Ki [7]: 1080 nM
ratio of integrin Ki/αvβ3 Ki [7]: 2.2
Ki (Human integrin αvβ5 [8]): 492 nM
ratio of integrin Ki/αvβ3 Ki (Human integrin αvβ5 [8]): 1
Ki (Human integrin α5β1 [9]): 266 nM
ratio of integrin Ki/αvβ3 Ki (Human integrin α5β1 [9]): 0.5
Ki [10]: 899 nM
ratio of integrin Ki/αvβ3 Ki [10]: 1.9
Ki (Human integrin αvβ3 [11]): 483 nM
ratio of integrin Ki/αvβ3 Ki (Human integrin αvβ3 [11]): 1
